What was measured:
Assay in all cases: SEC
[1] = molecular target: Full-length cytoplasmic C-terminal domain (VARC 1–392) of PfEMP1 (PF08_0141), unphosphorylated (P. falciparum 3D7)
[2] = molecular target: VARC 1–291 of PfEMP1 (PF08_0141) (P. falciparum 3D7)
[3] = molecular target: VARC 87–291 of PfEMP1 (PF08_0141) (P. falciparum 3D7)
[4] = molecular target: VARC 87–392 of PfEMP1 (PF08_0141) (P. falciparum 3D7)

Substance: Full-length cytoplasmic C-terminal domain (VARC 1–392) of PfEMP1 (PF08_0141), unphosphorylated (domain or fragment)
- stoichiometry N [1]: 2

Substance: VARC 1–291 of PfEMP1 (PF08_0141) (domain or fragment)
- stoichiometry N [2]: 2

Substance: VARC 87–291 of PfEMP1 (PF08_0141) (domain or fragment)
- stoichiometry N [3]: 2

Substance: VARC 87–392 of PfEMP1 (PF08_0141) (domain or fragment)
- stoichiometry N [4]: 2

From paper PMC2649111
